“And” between values parts separate entries of the source, which are not always exact repeats. Identical values can stand only once.
Tests used:
[1] = target: Cetuximab (Erbitux, 5 mg/mL); test: SEC; SE/UHPLC-UV as a10; sample exposed to accelerated light (250 W/m^2) for 24 h
[2] = target: Cetuximab (Erbitux, 5 mg/mL); test: SEC; SE/UHPLC-UV as a10; sample exposed to daylight for 24 h

- stoichiometry N [1]: 3 and 8 and 5
- stoichiometry N [2]: 3
Substance: Cetuximab (Erbitux, 5 mg/mL) (antibody)
